What was measured:
[1] = molecular target: MotA1 from Paenibacillus sp. TCA20 (Paenibacillus sp. TCA20); experiment: cryo-EM structure; co-expressed chimeric MotA1/MotB1-His6 complex, solubilised in LMNG, purified by Ni-affinity and SEC, reconstituted into peptidisc; 20 mM Tris-HCl pH 8.0, 100 mM NaCl; single particle analysis, three classes (3.3, 3.3 and 3.5 Å)
[2] = molecular target: chimeric MotB1 (N-terminal transmembrane domain of Paenibacillus sp. TCA20 MotB1 joined to the C-terminal periplasmic domain of E. coli MotB) (Paenibacillus sp. TCA20 | E. coli) (UniProt P0AF06); experiment: as above

Substance | stoichiometry N [1] | stoichiometry N [2]
MotA1 from Paenibacillus sp. TCA20 (natural protein) | 5 | 
chimeric MotB1 (N-terminal transmembrane domain of Paenibacillus sp. TCA20 MotB1 joined to the C-terminal periplasmic domain of E. coli MotB) (from UniProt P0AF06 104-302) |  | 2

Reference: PMC11940548
